Results from patent publication US20230303689A1 (published 2023).
Where a chain is given by its changes, count along the chain named. Where two headings read alike, the source gives them in different places.

B1: murine mAb 317 (antibody, V domains shown)
VH: QVQLKESGPGLVAPSKNLSITCTVSGFSLTSYGVHWIRQPPGKGLEWLGVIWAGGSTNYNSALMSRLSISKDNSRSQVFLRMNSLQTDDTAMYYCARAYGNYWYIDVWGAGTTVTVSS
VL: DIVMTQTPKFLLVSAGDRVTITCKASQSVSNDVAWYQQKPGQSPKLLINYAFHRFTGVPDRFTGSGYGTDFIFTISTVQAEDLAVYFCHQAYSSPYTFGGGTKLEMK
B2: murine mAb 326 (antibody, V domains shown)
VH: QIQLVQSGPELKKPGETVKISCKASGYTFTNYGMNWVKQAPGKGLKWMGWINNNNGEPTYAEEFKGRFAFSLETSASTAYLQINNLKNEDTATYFCARDVMDYWGQGTSVTVSS
VL: DIVLTQSPASLAVSLGQRATISCRASESVDNYGYSFMHWYQQKPGQPPQLLIYRASNLESGIPARFSGSGSRTGFTLTINPVEADDVATYYCQQSKEYPTFGGGTKLEVK
notes: Murine hybridoma IgG; also called mu326
B3: ch317 (chimeric antibody from mu317, human IgG2/kappa) (antibody, V domains shown, not shown: a dimerising Fc or GST)
VH: B1 VH
VL: DIVMTQTPKFLLVSAGDRVTITCKASQSVSNDVAWYQQKPGQSPKLLINYAFHRFTGVPDRFTGSGYGTDFIFTISTVQAEDLAVYFCHQAYSSPYTFGGGTKLEMKR
B4: hu317-1 (humanized, human IgG2/kappa) (antibody, V domains shown, not shown: a dimerising Fc or GST)
VH: QVQLQESGPGLVKPSETLSLTCTVSGFSLTSYGVHWIRQPPGKGLEWLGVIWAGGSTNYNPSLKSRLTISKDNSKSQVSLKMSSVTAADTAVYYCARAYGNYWYIDVWGQGTTVTVSS
VL: DIVMTQSPDSLAVSLGERATINCKASQSVSNDVAWYQQKPGQPPKLLINYAFHRFTGVPDRFSGSGYGTDFTLTISSLQAEDVAVYYCHQAYSSPYTFGGGTKLEIKR
B5: ch326 (chimeric antibody from mu326, human IgG2/kappa) (antibody, V domains shown)
VH: B2 VH
VL: DIVLTQSPASLAVSLGQRATISCRASESVDNYGYSFMHWYQQKPGQPPQLLIYRASNLESGIPARFSGSGSRTGFTLTINPVEADDVATYYCQQSKEYPTFGGGTKLEVKR
notes: domain: human Ig kappa C-region; not shown: human IgG2 constant region
B6: hu326-1 (humanized, human IgG2/kappa) (antibody, V domains shown, not shown: a dimerising Fc or GST)
VH: QVQLVQSGSELKKPGASVKVSCKASGYTFTNYGMNWVRQAPGQGLEWMGWINNNNGEPTYAQGFRGRFVFSLDTSASTAYLQISSLKTEDTAVYFCARDVMDYWGQGTTVTVSS
VL: B5 VL with L15P, S22T, Q49K, I62V, G74D, D85N, V87T, T89N, L107V, V109I

Tests used:
[1] = target: P3Z chimeric PD-1 receptor on HuT78/P3Z cells (human); assay: cell-based or functional assay
[2] = target: T1, human PD-1 expressed on cells (HuT78/PD-1, NK92MI/PD-1) (human, UniProt Q15116 25-288); assay: cell-based or functional assay
[3] = target: T2, PD-1-EC/Fc (human); assay: SPR (BIAcore T-200), mAb captured on anti-mouse Fc chip, PD-1/Fc injected
T2 construct: also called PD-1/Fc
Experimental: Anti-mouse Fc CM5 biosensor chip (GE Healthcare) was generated using a standard primary amine coupling protocol. PD-1 mAbs at 0.3 µg/ml were captured on anti-mouse Fc surface for 1 min at 10 µl/min. […] Association rates (Kₐ or kₒₙ) and dissociation rates (Kd or koff) were calculated using the one-to-one Langmuir binding model (BIA Evaluation Software, GE Life Sciences). The equilibrium dissociation constant (KD) was calculated as the ratio koff/kₒₙ.

[4] = target: T1, human PD-1 expressed on cells …; assay: cell-based or functional assay; remark: listed apart in the source
[5] = target: T1, human PD-1 expressed on cells …; assay: FACS on PD-1-expressing cells

T1 sequence (Q15116 25-288): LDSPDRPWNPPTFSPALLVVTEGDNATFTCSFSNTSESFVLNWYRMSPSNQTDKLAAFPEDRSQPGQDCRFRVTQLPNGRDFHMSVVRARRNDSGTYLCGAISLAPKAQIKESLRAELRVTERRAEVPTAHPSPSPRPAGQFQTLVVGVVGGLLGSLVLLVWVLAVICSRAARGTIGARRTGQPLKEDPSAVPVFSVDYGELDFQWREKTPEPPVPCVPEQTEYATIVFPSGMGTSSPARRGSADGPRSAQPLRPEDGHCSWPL
T2 sequence (Q15116 21-168): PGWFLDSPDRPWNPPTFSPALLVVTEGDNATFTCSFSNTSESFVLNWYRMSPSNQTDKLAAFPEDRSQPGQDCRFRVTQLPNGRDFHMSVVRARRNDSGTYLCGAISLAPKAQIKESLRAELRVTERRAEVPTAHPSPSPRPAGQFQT
Sequence of P3Z chimeric PD-1 receptor on HuT78/P3Z cells (human) (chain, as listed by the source mutant limits assumed): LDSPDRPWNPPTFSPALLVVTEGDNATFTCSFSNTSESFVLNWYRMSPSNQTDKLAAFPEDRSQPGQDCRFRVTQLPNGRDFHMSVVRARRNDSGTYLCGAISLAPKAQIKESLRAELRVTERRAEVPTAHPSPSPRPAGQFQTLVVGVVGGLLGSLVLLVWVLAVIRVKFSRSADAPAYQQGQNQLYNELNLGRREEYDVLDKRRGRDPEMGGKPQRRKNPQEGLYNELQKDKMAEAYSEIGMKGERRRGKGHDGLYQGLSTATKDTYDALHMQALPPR

Row | Inhibition of IL-2 secretion, HuT78/P3Z + HEK293/PD-L1: IC50 [1] | Assay-1, IL-2 release HuT78/PD-1 + HEK293/OS8/PD-L1: Baseline [2] | Assay-1, IL-2 release HuT78/PD-1 + HEK293/OS8/PD-L1: Baseline [4] | further results | Binder
1 | 0.083 µg/mL | 98 pg/mL | – | – | B1
2 | 0.039 µg/mL | – | 242 pg/mL | Kd [3]: 324 pM; koff [3]: 7.79e-05 s⁻¹; kon [3]: 240000 M⁻¹ s⁻¹ | B2
3 | – | 82 pg/mL | – | – | B3
4 | – | 91 pg/mL | – | – | B4
5 | – | – | 250 pg/mL | EC50 [5]: 0.72 µg/mL | B5
6 | – | – | 283 pg/mL | – | B6
